Measured values: patent US20160222130A1 (Astellas, published 2016)

Key:
Assay in all cases: ELISA; Tie2-Fc coated at 1 ug/mL, chemiluminescence
[1] = biological target: T1, Human Tie2 (1-452)A1-Fc (human, UniProt Q02763 23-452)
T1 construct: range 1-452
Experimental: (§1) The next day, the immobilized solution was removed, and the plate was washed with a TBS-T solution, and incubated for 60 minutes by the addition of 50 μL of a Blocker™ Casein in TBS (Thermo Fisher Scientific Inc., 37532) to perform blocking. The resultant was washed with a TBS-T solution, and TIE-1-Igγ1-LALA, diluted with 0.05% Tween 20 (Nacalai Tesque Inc., 28353-85)—containing Blocker™ Casein in TBS from 0.03 ng/mL to 100 ng/mL through eight steps, was added thereto in the amount of 20 μL per well. The resultant was incubated at room temperature for 90 minutes and then washed with a TBS-T solution three times, and 20 μL of a biotin-labeled anti-human kappa light chain antibody, which had been diluted to 0.1 μg/mL with 0.05% Tween 20-containing Blocker™ Casein in TBS, was added thereto. The resultant was incubated at room temperature for 60 minutes and then washed with a TBS-T solution three times, and 20 μL of alkaline phosphatase-labeled streptavidin, which had been diluted to 0.1 μg/mL with 0.05% Tween 20-containing Blocker™ Casein in TBS, was added thereto. The resultant was incubated at room temperature for 60 minutes and then washed with a TBS-T solution three times, and 50 μL of Chemiluminescent Ultra Sensitive AP Microwell and/or Membrane Substrate (450 nm), which had been 5-fold diluted with 1 mM MgCl₂-containing 20 mM TBS (pH 9.8) as a substrate, was added thereto. The resultant was incubated at room temperature under light-shielding for 40 minutes, and then luminescent intensity thereof was measured with an EnVision™ multi-label counter. The EC₅₀ value of TIE-1-Igγ1-LALA with respect to the human Tie2 (1-452)-Fc chimeric protein and 23 mutant proteins thereof were calculated. The relative value of luminescent intensity of 100 ng/mL TIE-1-Igγ1-LALA as maximum concentration point with respect to human Tie2 (1-452)-Fc chimeric protein and 23 mutant proteins thereof when the convergence value of the sigmoid curve of TIE-1-Igγ1-LALA binding to the human Tie2 (1-452)-Fc chimeric protein which was taken as 100% was calculated (Table 8 and Table 9). Further, the EC₅₀ value and the convergence value were calculated by Sigmoid-Emax model non-linear regression analysis.

[2] = biological target: T2, Human Tie2 (1-452)A2-Fc (human, UniProt Q02763 23-452)
T2 construct: range 1-452
Experimental: as §1

[3] = biological target: T3, Human Tie2 (1-452)A3-Fc (human, UniProt Q02763 23-452)
T3 construct: range 1-452
Experimental: as §1

[4] = biological target: T4, Human Tie2 (1-452)A4-Fc (human, UniProt Q02763 23-452)
T4 construct: range 1-452
Experimental: as §1

[5] = biological target: T5, Human Tie2 (1-452)A5-Fc (human, UniProt Q02763 23-452)
T5 construct: range 1-452
Experimental: as §1

[6] = biological target: T6, Human Tie2 (1-452)A6-Fc (human, UniProt Q02763 23-452)
T6 construct: range 1-452
Experimental: as §1

[7] = biological target: T7, human Tie2 (1-452)-Fc chimeric protein (human, UniProt Q02763 23-452)
T7 construct: range 1-452; The stated range 1-452 begins at residue 1 of the precursor
Experimental: as §1

T6 sequence (Q02763 other isoform, or with tags, fused parts or gaps limits assumed, form in doubt): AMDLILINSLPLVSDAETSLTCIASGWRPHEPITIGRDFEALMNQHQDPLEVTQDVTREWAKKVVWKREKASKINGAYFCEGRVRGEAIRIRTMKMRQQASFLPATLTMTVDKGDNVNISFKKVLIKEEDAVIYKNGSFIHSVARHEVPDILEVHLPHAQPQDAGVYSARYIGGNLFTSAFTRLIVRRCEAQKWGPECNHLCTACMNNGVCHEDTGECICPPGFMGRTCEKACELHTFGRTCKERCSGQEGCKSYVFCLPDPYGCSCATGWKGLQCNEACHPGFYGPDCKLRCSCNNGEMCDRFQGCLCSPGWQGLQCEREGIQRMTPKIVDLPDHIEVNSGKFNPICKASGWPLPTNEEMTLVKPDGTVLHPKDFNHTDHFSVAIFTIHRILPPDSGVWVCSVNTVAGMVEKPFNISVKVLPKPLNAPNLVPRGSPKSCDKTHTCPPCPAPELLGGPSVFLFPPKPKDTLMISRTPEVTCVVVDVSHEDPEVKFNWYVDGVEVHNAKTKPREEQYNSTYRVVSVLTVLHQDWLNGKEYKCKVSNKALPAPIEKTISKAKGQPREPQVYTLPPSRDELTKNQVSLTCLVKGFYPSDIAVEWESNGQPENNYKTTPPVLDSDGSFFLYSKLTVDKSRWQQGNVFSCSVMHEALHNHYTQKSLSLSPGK
T5 sequence (Q02763 other isoform, or with tags, fused parts or gaps limits assumed, form in doubt): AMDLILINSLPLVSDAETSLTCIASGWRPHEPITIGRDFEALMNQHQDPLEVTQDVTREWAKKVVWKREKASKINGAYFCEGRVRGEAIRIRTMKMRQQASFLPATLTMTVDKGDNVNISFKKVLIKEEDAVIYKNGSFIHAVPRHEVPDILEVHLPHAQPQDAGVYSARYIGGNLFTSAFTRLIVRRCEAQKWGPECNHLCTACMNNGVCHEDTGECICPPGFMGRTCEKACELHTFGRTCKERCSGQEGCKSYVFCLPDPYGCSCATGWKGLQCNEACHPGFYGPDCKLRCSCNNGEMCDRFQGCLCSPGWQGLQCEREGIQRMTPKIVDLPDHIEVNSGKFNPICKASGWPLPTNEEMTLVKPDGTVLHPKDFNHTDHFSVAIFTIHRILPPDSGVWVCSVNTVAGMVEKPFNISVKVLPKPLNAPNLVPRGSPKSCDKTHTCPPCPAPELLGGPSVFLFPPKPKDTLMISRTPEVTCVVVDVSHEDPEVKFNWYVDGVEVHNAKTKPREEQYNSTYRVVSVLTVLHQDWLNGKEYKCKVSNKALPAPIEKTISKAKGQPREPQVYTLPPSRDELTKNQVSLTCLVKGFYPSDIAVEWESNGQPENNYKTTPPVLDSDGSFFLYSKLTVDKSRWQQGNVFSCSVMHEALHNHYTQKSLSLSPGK
T1 sequence (Q02763 other isoform, or with tags, fused parts or gaps limits assumed, form in doubt): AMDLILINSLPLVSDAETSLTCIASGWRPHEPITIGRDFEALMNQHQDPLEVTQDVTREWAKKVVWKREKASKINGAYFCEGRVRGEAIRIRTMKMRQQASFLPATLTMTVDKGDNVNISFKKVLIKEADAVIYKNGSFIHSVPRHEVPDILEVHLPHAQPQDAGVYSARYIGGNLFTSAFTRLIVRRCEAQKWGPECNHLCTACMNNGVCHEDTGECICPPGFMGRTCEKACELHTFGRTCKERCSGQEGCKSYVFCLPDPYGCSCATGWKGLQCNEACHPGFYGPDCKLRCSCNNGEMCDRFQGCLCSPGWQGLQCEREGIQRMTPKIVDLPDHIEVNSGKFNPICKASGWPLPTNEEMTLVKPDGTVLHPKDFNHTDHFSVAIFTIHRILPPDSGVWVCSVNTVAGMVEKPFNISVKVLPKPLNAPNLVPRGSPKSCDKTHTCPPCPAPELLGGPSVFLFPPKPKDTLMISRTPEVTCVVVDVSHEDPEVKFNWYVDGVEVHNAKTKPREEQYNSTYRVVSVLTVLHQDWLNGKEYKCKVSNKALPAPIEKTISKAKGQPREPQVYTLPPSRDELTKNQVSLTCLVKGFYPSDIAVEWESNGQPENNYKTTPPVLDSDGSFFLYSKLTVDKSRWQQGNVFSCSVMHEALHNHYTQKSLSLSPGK
T7 sequence (Q02763 other isoform, or with tags, fused parts or gaps mutant limits assumed, form in doubt): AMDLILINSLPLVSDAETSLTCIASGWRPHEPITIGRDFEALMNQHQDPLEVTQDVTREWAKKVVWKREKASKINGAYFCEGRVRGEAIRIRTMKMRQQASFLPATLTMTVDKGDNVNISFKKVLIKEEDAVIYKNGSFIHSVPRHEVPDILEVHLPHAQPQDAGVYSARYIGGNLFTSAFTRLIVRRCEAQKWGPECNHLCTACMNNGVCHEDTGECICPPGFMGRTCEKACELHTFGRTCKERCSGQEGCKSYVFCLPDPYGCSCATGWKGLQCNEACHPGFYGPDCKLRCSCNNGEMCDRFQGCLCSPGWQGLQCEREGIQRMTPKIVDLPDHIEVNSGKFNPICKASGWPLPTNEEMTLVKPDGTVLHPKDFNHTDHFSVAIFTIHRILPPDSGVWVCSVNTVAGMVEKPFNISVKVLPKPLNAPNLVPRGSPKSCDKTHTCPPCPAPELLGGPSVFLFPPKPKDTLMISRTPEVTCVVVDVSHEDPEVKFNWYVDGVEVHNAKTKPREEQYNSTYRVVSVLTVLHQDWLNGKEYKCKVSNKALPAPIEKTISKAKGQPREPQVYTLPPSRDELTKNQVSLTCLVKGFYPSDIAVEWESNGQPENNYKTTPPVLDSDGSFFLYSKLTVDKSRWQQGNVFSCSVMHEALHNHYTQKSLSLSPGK
T2 sequence (Q02763 other isoform, or with tags, fused parts or gaps limits assumed, form in doubt): as the sequence (Q02763 other isoform, or with tags, fused parts or gaps mutant limits assumed, form in doubt) above, with V132A counted along it
T3 sequence (Q02763 other isoform, or with tags, fused parts or gaps limits assumed, form in doubt): as the sequence (Q02763 other isoform, or with tags, fused parts or gaps mutant limits assumed, form in doubt) above, with Y134A counted along it
T4 sequence (Q02763 other isoform, or with tags, fused parts or gaps limits assumed, form in doubt): as the sequence (Q02763 other isoform, or with tags, fused parts or gaps mutant limits assumed, form in doubt) above, with F139A counted along it

EC50 [1]: 1.3 ng/mL | EC50 [2]: 1.3 ng/mL | EC50 [3]: 1 ng/mL | EC50 [4]: 1 ng/mL | EC50 [5]: 0.9 ng/mL | EC50 [6]: 1.1 ng/mL | EC50 [7]: 1 ng/mL
B1: TIE-1-Igγ1-LALA (antibody, human IgG1, kappa, L234A L235A)
heavy: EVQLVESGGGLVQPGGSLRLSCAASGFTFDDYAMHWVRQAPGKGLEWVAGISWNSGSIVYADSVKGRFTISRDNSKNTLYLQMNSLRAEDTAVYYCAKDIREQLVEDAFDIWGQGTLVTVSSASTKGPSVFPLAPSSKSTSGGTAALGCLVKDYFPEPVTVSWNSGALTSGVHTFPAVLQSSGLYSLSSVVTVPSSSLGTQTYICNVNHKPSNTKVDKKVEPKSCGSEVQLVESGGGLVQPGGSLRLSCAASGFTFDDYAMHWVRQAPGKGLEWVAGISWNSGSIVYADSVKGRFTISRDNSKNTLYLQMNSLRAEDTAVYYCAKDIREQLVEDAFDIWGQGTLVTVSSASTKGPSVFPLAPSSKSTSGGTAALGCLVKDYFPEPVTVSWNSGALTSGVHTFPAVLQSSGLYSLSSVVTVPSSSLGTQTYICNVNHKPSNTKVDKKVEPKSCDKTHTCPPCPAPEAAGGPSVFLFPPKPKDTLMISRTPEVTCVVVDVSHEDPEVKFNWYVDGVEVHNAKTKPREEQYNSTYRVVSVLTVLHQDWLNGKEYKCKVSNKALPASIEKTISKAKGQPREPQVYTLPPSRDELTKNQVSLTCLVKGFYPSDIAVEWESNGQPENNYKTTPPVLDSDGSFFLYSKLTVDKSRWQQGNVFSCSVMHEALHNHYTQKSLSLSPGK
light: DIQMTQSPSSLSASVGDRVTITCRSSQSLLHSHRYNYLDWYQQKPGKAPKLLIYLGSNRASGVPSRFSGSGSGTDFTLTISSVQPEDFATYYCMQTLQTPLTFGQGTKVEIKRTVAAPSVFIFPPSDEQLKSGTASVVCLLNNFYPREAKVQWKVDNALQSGNSQESVTEQDSKDSTYSLSSTLTLSKADYEKHKVYACEVTHQGLSSPVTKSFNRGEC
notes: Tandem tetravalent format: two heavy chains (VH-CH1-linker-VH-CH1-CH2-CH3) and four light chains; also called tetravalent anti-human Tie2 antibody with L234A, L235A and P331S
